Values quoted from earlier work in publication PMC4964448.

Assays:
[1] = target: PSGL-1 (Homo sapiens) (UniProt Q14242)
[2] = target: MMP9 (Homo sapiens) (UniProt P14780)
UniProt P14780, sequence (P14780 94-707): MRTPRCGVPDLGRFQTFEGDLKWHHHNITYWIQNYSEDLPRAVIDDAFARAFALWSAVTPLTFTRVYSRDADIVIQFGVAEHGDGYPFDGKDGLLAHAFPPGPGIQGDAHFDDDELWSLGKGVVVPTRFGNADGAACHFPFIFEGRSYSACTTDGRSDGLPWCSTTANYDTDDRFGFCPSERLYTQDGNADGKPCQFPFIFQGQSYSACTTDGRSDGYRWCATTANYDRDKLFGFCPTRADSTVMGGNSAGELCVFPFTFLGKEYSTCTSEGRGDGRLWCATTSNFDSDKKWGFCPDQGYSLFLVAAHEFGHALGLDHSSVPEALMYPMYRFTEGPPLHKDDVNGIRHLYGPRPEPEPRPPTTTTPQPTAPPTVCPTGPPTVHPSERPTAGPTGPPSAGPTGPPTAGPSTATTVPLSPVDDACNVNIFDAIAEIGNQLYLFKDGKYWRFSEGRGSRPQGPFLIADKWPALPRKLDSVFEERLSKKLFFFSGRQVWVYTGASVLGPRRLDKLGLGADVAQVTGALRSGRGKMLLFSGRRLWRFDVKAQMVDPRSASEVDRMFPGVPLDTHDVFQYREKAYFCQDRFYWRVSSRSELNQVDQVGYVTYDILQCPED

UniProt Q14242, sequence (Q14242 42-320): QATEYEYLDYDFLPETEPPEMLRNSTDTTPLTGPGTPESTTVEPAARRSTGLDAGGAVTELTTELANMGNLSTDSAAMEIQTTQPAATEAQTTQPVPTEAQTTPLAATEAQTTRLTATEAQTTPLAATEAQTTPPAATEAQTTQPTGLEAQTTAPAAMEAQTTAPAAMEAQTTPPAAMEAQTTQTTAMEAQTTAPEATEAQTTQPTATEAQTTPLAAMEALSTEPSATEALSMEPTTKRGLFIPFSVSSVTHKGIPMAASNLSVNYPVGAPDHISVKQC

SSL5 (from UniProt Q2G1S6)
Kd [1]: 820 nM | Kd [2]: 1.9 nM
